Key:
[1] = pseudovirus neutralization (S4 Table); settings: glycan lost; control: JR-FL parent
[2] = pseudovirus neutralization, global sensitivity (≥2 of 6 non-nAbs); settings: glycan lost
[3] = TZM-bl pseudovirus neutralization ID50; settings: glycan lost

Substance: JR-FL Env (gp160∆CT): N160A
- other: neutralisation sensitivity [1]: no change

Substance: JR-FL Env (gp160∆CT): N332Q
- other: neutralisation sensitivity [1]: no change

Substance: ADA Env: N197D
- other: neutralisation sensitivity ([2]; control: ADA parent): no change

Substance: PVO.4 Env: N197D
- other: neutralisation sensitivity ([3]; control: PVO.4 parent): no change
- other: neutralisation sensitivity ([2]; control: PVO.4 parent): no change

Substance: JR-CSF Env: N197D
- other: neutralisation sensitivity ([3]; control: JR-CSF parent): increases
- other: neutralisation sensitivity ([2]; control: JR-CSF parent): no change

Reference: publication PMC4449185
